One experiment deals with DRB*0701 (human). The experiment can be described thus: HLA competition binding.
The target in the next experiment is DRB*0301 (human, UniProt P01903 26-216). Put plainly: HLA competition binding.

Consider MGEVVAATPTSLLIS [N-terminal to BC Loop SEQ ID NO 53], for which the IC50 with DRB*0701 is 0.5 µM; with DRB*0301, 1 µM.

Turning to PVQEFTVPGSKSTATISGLK [DE Loop SEQ ID NO 51], the IC50 in the experiment with DRB*0701 is above 200 µM. PTSLLISWDAPAVTVRYYRITYG [BC Loop SEQ ID NO 58] showed an IC50 in the experiment with DRB*0701 of 1 µM.

The term IC50 denotes the concentration needed to halve the response being measured. A lower IC50 goes with higher potency.

(Values after patent US20150051149A1 (published 2015).)
